Patent publication US20110300138A1 (published 2011)
Like-named read-outs stand apart in the source and are kept apart here.

Columns and labels:
Test in all cases: cell-based or functional assay
[1] = molecular target: TSHR with Lys58 mutated to Ala expressed in CHO cells (human) (UniProt P16473)
[2] = molecular target: TSHR with Arg255 mutated to Ala, expressed in CHO cells (human) (UniProt P16473)
[3] = molecular target: wild type TSHR (human TSH receptor) expressed in CHO cells (human) (UniProt P16473)
[4] = molecular target: wild type TSHR expressed in CHO cells (human) (UniProt P16473)
[5] = molecular target: TSHR with Lys183 mutated to Ala expressed in CHO cells (human) (UniProt P16473)
[6] = molecular target: TSHR with Glu178 mutated to Ala expressed in CHO cells (human) (UniProt P16473)
[7] = molecular target: TSHR with Lys250 mutated to Ala (expressed in CHO cells) (human) (UniProt P16473)
[8] = molecular target: TSHR with Lys183 mutated to Asp expressed in CHO cells (human) (UniProt P16473)
[9] = molecular target: TSHR with Asp203 mutated to Ala expressed in CHO cells (human) (UniProt P16473)
[10] = molecular target: wild type TSHR (human TSH receptor) expressed in CHO cells (human) (UniProt P16473); remark: listed apart in the source
[11] = molecular target: TSHR with Thr257 mutated to Ala, expressed in CHO cells (human) (UniProt P16473)
[12] = molecular target: wild type TSHR expressed in CHO cells (human) (UniProt P16473); remark: listed apart in the source
[13] = molecular target: human TSHR with Glu251 mutated to Ala expressed in CHO cells (human) (UniProt P16473)
[14] = molecular target: TSHR with Tyr82 mutated to Ala expressed in CHO cells (human) (UniProt P16473)
[15] = molecular target: wild type TSHR expressed in CHO cells (human) (UniProt P16473); remark: listed apart in the source
[16] = molecular target: TSHR with Arg80 mutated to Ala expressed in CHO cells (human) (UniProt P16473)
[17] = molecular target: wild type TSHR expressed in CHO cells (human) (UniProt P16473); remark: listed apart in the source
[18] = molecular target: wild type TSHR (human TSH receptor) expressed in CHO cells (human) (UniProt P16473); remark: listed apart in the source
[19] = molecular target: TSHR with Trp258 mutated to Ala, expressed in CHO cells (human) (UniProt P16473)

Cyclic AMP produced at 0.01 ng/mL TSH [1]: 7.16 pmol/mL | Cyclic AMP produced at 0.03 ng/mL TSH [1]: 10 pmol/mL | Cyclic AMP produced at 0.1 ng/mL TSH [1]: 17.2 pmol/mL | Cyclic AMP produced at 0.3 ng/mL TSH [1]: 45.9 pmol/mL | Cyclic AMP produced at 1 ng/mL TSH [1]: 75.2 pmol/mL | Cyclic AMP produced at 3 ng/mL TSH [1]: 83.7 pmol/mL | Mutated/Wild type (%) of cyclic AMP at 0.01 ng/mL TSH [1]: 230% | Mutated/Wild type (%) of cyclic AMP at 0.03 ng/mL TSH [1]: 226% | Mutated/Wild type (%) of cyclic AMP at 0.1 ng/mL TSH [1]: 171% | Mutated/Wild type (%) of cyclic AMP at 0.3 ng/mL TSH [1]: 111% | Mutated/Wild type (%) of cyclic AMP at 1 ng/mL TSH [1]: 101% | Mutated/Wild type (%) of cyclic AMP at 3 ng/mL TSH [1]: 88% | % inhibition of TSH stimulation; TSH (2), run at the end of assay [2]: 7% | Cyclic AMP produced; TSH 3 ng/mL [2]: 63.9 pmol/mL | Cyclic AMP produced; TSH (2) 3 ng/mL, run at the end of assay [2]: 59.6 pmol/mL | Mutated/wild type (%) of cyclic AMP produced; TSH 3 ng/mL [2]: 102% | Mutated/wild type (%) of cyclic AMP produced; TSH (2) 3 ng/mL, run at the end of assay [2]: 87% | % inhibition of TSH stimulation, Exp 1: TSH (2) [3]: 0% | % inhibition of TSH stimulation, Exp 2: TSH (2) [3]: 0% | % inhibition of TSH stimulation: TSH (2) [3]: 0% | % inhibition of TSH stimulation; TSH (2), run at the end of assay [3]: 0% | Cyclic AMP produced; TSH 3 ng/mL [3]: 62.4 pmol/mL | Cyclic AMP produced; TSH (2) 3 ng/mL, run at the end of assay [3]: 68.4 pmol/mL | % inhibition of TSH stimulation; TSH (2), run at the end of assay [4]: 0% | % inhibition of TSH stimulation; TSH (2), run at the end of assay, no antibody; Experiment 1 [4]: 0% | % inhibition of TSH stimulation; TSH (2), run at the end of assay, no antibody; Experiment 2 [4]: 12% | % inhibition of TSH stimulation; TSH (2), run at the end of assay; Exp 1 [4]: 0% | % inhibition of TSH stimulation; TSH (2), run at the end of assay; Exp 2 [4]: 0% | Cyclic AMP produced at 0.01 ng/mL TSH [4]: 3.11 pmol/mL | Cyclic AMP produced at 0.03 ng/mL TSH [4]: 4.43 pmol/mL | Cyclic AMP produced at 0.1 ng/mL TSH [4]: 10.1 pmol/mL | Cyclic AMP produced at 0.3 ng/mL TSH [4]: 41.2 pmol/mL | Cyclic AMP produced at 1 ng/mL TSH [4]: 74.5 pmol/mL | Cyclic AMP produced at 3 ng/mL TSH [4]: 95.3 pmol/mL | Cyclic AMP produced; TSH 3 ng/mL [4]: 85.8 pmol/mL | Cyclic AMP produced; TSH 3 ng/mL alone; Experiment 1 [4]: 77.9 pmol/mL | Cyclic AMP produced; TSH 3 ng/mL alone; Experiment 2 [4]: 86.5 pmol/mL | Cyclic AMP produced; TSH 3 ng/mL; Exp 1 [4]: 52.9 pmol/mL | Cyclic AMP produced; TSH 3 ng/mL; Exp 2 [4]: 87.2 pmol/mL | Cyclic AMP produced; TSH (2) 3 ng/mL, run at the end of assay [4]: 97.8 pmol/mL | Cyclic AMP produced; TSH (2) 3 ng/mL, run at the end of assay; Exp 1 [4]: 77.2 pmol/mL | Cyclic AMP produced; TSH (2) 3 ng/mL, run at the end of assay; Exp 2 [4]: 88.1 pmol/mL | Cyclic AMP produced; TSH (2) 3 ng/mL, run at the end of assay; Experiment 1 [4]: 84.5 pmol/mL | Cyclic AMP produced; TSH (2) 3 ng/mL, run at the end of assay; Experiment 2 [4]: 75.9 pmol/mL | % inhibition of TSH stimulation, Exp 1: TSH (2) [5]: 18% | % inhibition of TSH stimulation, Exp 2: TSH (2) [5]: 23% | Cyclic AMP, Mutated/wild type (%), Exp 1: TSH 3 ng/mL [5]: 124% | Cyclic AMP, Mutated/wild type (%), Exp 1: TSH (2) [5]: 74% | Cyclic AMP, Mutated/wild type (%), Exp 2: TSH 3 ng/mL [5]: 128% | % inhibition of TSH stimulation; TSH (2), run at the end of assay; Exp 1 [6]: 12% | % inhibition of TSH stimulation; TSH (2), run at the end of assay; Exp 2 [6]: 5% | Cyclic AMP produced; TSH 3 ng/mL; Exp 1 [6]: 56.6 pmol/mL | Cyclic AMP produced; TSH 3 ng/mL; Exp 2 [6]: 46.2 pmol/mL | Cyclic AMP produced; TSH (2) 3 ng/mL, run at the end of assay; Exp 1 [6]: 50.1 pmol/mL | Cyclic AMP produced; TSH (2) 3 ng/mL, run at the end of assay; Exp 2 [6]: 44.1 pmol/mL | Mutated/wild type (%) of cyclic AMP produced; TSH 3 ng/mL; Exp 1 [6]: 107% | Mutated/wild type (%) of cyclic AMP produced; TSH 3 ng/mL; Exp 2 [6]: 53% | Mutated/wild type (%) of cyclic AMP produced; TSH (2) 3 ng/mL, run at the end of assay; Exp 1 [6]: 65% | Mutated/wild type (%) of cyclic AMP produced; TSH (2) 3 ng/mL, run at the end of assay; Exp 2 [6]: 50% | % inhibition of TSH stimulation; TSH (2), run at the end of assay, no antibody; Experiment 1 [7]: 10% | % inhibition of TSH stimulation; TSH (2), run at the end of assay, no antibody; Experiment 2 [7]: 7% | Cyclic AMP produced; TSH 3 ng/mL alone; Experiment 1 [7]: 64.7 pmol/mL | Cyclic AMP produced; TSH 3 ng/mL alone; Experiment 2 [7]: 55 pmol/mL | Cyclic AMP produced; TSH (2) 3 ng/mL, run at the end of assay; Experiment 1 [7]: 58.3 pmol/mL | Cyclic AMP produced; TSH (2) 3 ng/mL, run at the end of assay; Experiment 2 [7]: 51.1 pmol/mL | Mutated/wild type (%) of cyclic AMP produced; TSH 3 ng/mL alone; Experiment 1 [7]: 83% | Mutated/wild type (%) of cyclic AMP produced; TSH 3 ng/mL alone; Experiment 2 [7]: 64% | % inhibition of TSH stimulation; TSH (2), run at the end of assay [8]: 20% | Cyclic AMP produced; TSH 3 ng/mL [8]: 117 pmol/mL | Cyclic AMP produced; TSH (2) 3 ng/mL, run at the end of assay [8]: 93.4 pmol/mL | Mutated/wild type (%) of cyclic AMP produced; TSH 3 ng/mL [8]: 137% | % inhibition of TSH stimulation: TSH (2) [9]: 0% | Cyclic AMP, Mutated/wild type (%): TSH 3 ng/mL [9]: 76% | Cyclic AMP, Mutated/wild type (%): TSH (2) [9]: 87% | Cyclic AMP produced; TSH 3 ng/mL [10]: 66.1 pmol/mL | Cyclic AMP produced; TSH (2) 3 ng/mL, run at the end of assay [10]: 93 pmol/mL | % inhibition of TSH stimulation; TSH (2), run at the end of assay [11]: 8% | Cyclic AMP produced; TSH 3 ng/mL [11]: 93.2 pmol/mL | Cyclic AMP produced; TSH (2) 3 ng/mL, run at the end of assay [11]: 85.4 pmol/mL | Mutated/wild type (%) of cyclic AMP produced; TSH 3 ng/mL [11]: 141% | % inhibition of TSH stimulation; TSH (2), run at the end of assay, no antibody [12]: 0% | Cyclic AMP produced; TSH 3 ng/mL alone [12]: 97.5 pmol/mL | Cyclic AMP produced; TSH (2) 3 ng/mL, run at the end of assay [12]: 104 pmol/mL | % inhibition of TSH stimulation; TSH (2), run at the end of assay, no antibody [13]: 0% | Cyclic AMP produced; TSH 3 ng/mL alone [13]: 76.1 pmol/mL | Cyclic AMP produced; TSH (2) 3 ng/mL, run at the end of assay [13]: 87.4 pmol/mL | Mutated/wild type (%) of cyclic AMP produced; TSH 3 ng/mL alone [13]: 78% | Mutated/wild type (%) of cyclic AMP produced; TSH (2) 3 ng/mL, run at the end of assay [13]: 84% | Cyclic AMP produced at 0.01 ng/mL TSH [14]: 2.6 pmol/mL | Cyclic AMP produced at 0.03 ng/mL TSH [14]: 4.1 pmol/mL | Cyclic AMP produced at 0.1 ng/mL TSH [14]: 9.64 pmol/mL | Cyclic AMP produced at 0.3 ng/mL TSH [14]: 33.7 pmol/mL | Cyclic AMP produced at 1 ng/mL TSH [14]: 50 pmol/mL | Cyclic AMP produced at 3 ng/mL TSH [14]: 61.3 pmol/mL | Mutated/Wild type (%) of cyclic AMP at 0.01 ng/mL TSH [14]: 257% | Mutated/Wild type (%) of cyclic AMP at 0.03 ng/mL TSH [14]: 93% | Mutated/Wild type (%) of cyclic AMP at 0.1 ng/mL TSH [14]: 100% | Mutated/Wild type (%) of cyclic AMP at 0.3 ng/mL TSH [14]: 113% | Mutated/Wild type (%) of cyclic AMP at 3 ng/mL TSH [14]: 108% | Cyclic AMP produced at 0.01 ng/mL TSH [15]: 1.01 pmol/mL | Cyclic AMP produced at 0.03 ng/mL TSH [15]: 4.39 pmol/mL | Cyclic AMP produced at 0.1 ng/mL TSH [15]: 9.67 pmol/mL | Cyclic AMP produced at 0.3 ng/mL TSH [15]: 29.8 pmol/mL | Cyclic AMP produced at 1 ng/mL TSH [15]: 53.3 pmol/mL | Cyclic AMP produced at 3 ng/mL TSH [15]: 56.6 pmol/mL | Cyclic AMP produced at 0.01 ng/mL TSH [16]: 4.06 pmol/mL | Cyclic AMP produced at 0.03 ng/mL TSH [16]: 6.19 pmol/mL | Cyclic AMP produced at 0.1 ng/mL TSH [16]: 13.3 pmol/mL | Cyclic AMP produced at 0.3 ng/mL TSH [16]: 27.7 pmol/mL | Cyclic AMP produced at 1 ng/mL TSH [16]: 54.5 pmol/mL | Cyclic AMP produced at 3 ng/mL TSH [16]: 57 pmol/mL | Mutated/Wild type (%) of cyclic AMP at 0.01 ng/mL TSH [16]: 203% | Mutated/Wild type (%) of cyclic AMP at 0.03 ng/mL TSH [16]: 168% | Mutated/Wild type (%) of cyclic AMP at 0.1 ng/mL TSH [16]: 146% | Mutated/Wild type (%) of cyclic AMP at 0.3 ng/mL TSH [16]: 125% | Cyclic AMP produced at 0.01 ng/mL TSH [17]: 2 pmol/mL | Cyclic AMP produced at 0.03 ng/mL TSH [17]: 3.68 pmol/mL | Cyclic AMP produced at 0.1 ng/mL TSH [17]: 9.1 pmol/mL | Cyclic AMP produced at 0.3 ng/mL TSH [17]: 22.2 pmol/mL | Cyclic AMP produced at 1 ng/mL TSH [17]: 57.5 pmol/mL | Cyclic AMP produced at 3 ng/mL TSH [17]: 58.5 pmol/mL | Cyclic AMP produced; TSH 3 ng/mL [18]: 58.8 pmol/mL | Cyclic AMP produced; TSH (2) 3 ng/mL, run at the end of assay [18]: 69.6 pmol/mL | % inhibition of TSH stimulation; TSH (2), run at the end of assay [19]: 20% | Cyclic AMP produced; TSH 3 ng/mL [19]: 59.9 pmol/mL | Cyclic AMP produced; TSH (2) 3 ng/mL, run at the end of assay [19]: 47.8 pmol/mL | Mutated/wild type (%) of cyclic AMP produced; TSH 3 ng/mL [19]: 102%
Substance: TSH (thyroid stimulating hormone) (ligand)
